Measured values taken from patent publication US7553630.

Assays:
[1] = biological target: type I collagenase in activated conditioned medium from TPA-treated rabbit synovial fibroblasts (rabbit) (UniProt P13943); assay: cell-based or functional assay
[2] = tested on: peptide 1 (19 kDa) from plasmin digestion of CHO-derived human MI
[3] = tested on: peptide 3 (13.5 kDa) from plasmin digestion of CHO-derived human MI
[4] = biological target: E. coli-derived recombinant human metalloproteinase inhibitor (MI)
[5] = biological target: CHO cell-derived recombinant human metalloproteinase inhibitor (MI)

Sequence of peptide 3 (13.5 kDa) from plasmin digestion of CHO-derived human MI (chain, as listed by the source): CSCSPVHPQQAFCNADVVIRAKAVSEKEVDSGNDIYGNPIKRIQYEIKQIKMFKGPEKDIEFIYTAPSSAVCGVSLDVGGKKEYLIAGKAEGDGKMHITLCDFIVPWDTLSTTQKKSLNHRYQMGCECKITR

bovine peak II-derived metalloproteinase inhibitor (from UniProt P20414 24-207)
Specific activity (units/mg), radiolabeled collagen film collagenase inhibition assay [1]: 1780 units/mg

gelatinase(s) in activated conditioned medium from TPA-treated rabbit synovial fibroblasts
SDS-gelatin PAGE of a plasmin digest of MI [2]: These peptides retained their anticollagenase activity as shown by the SDS-gelatin PAGE
SDS-gelatin PAGE of a plasmin digest of MI [3]: These peptides retained their anticollagenase activity as shown by the SDS-gelatin PAGE

B1: type I collagenase in activated conditioned medium from TPA-treated rabbit synovial fibroblasts (protein)
chain: FVLTPGNPRWEQTHLTYRIENYTPDLSRADVDNAIEKAFQLWSNVTPLTFTKVSKGQADIMISFVRGDHRDNSPFDGPEGQLAHAFQPGLGIGGDVHFDEDDRWTKDFRNYNLYRVAAHELGHSLGLSHSTDIGALMYPNYMFSGDVQLAQDDIDGIQAIYGPSQNPSQPVGPQTPKVCDSKLTFDAITTIRGEIMFFKDRFYMRANPYYSEVELNFISVFWPHLPNGLQAAYEVAHRDEILFFKGNKYWTVQGQNELPGYPKDIHSSFGFPRSVNHIDAAVSEEDTGKTYFFVANKYWRYDEYKRSMDAGYPKMIEYDFPGIGNKVDAVFKKDGFFYFFHGTRQYKFDPKTKRILTLQKANSWFNCRKN
SDS-PAGE and autoradiography of specific collagen cleavage; MI at about 2 µg/ml [4]: also inhibited the specific collagen cleavage characteristic of mammalian collagenases

B2: rabbit fibroblast interstitial collagenase (42-kDa activated enzyme, APMA-activated) (protein)
chain: FVLTPGNPRWEQTHLTYRIENYTPDLSRADVDNAIEKAFQLWSNVTPLTFTKVSKGQADIMISFVRGDHRDNSPFDGPEGQLAHAFQPGLGIGGDVHFDEDDRWTKDFRNYNLYRVAAHELGHSLGLSHSTDIGALMYPNYMFSGDVQLAQDDIDGIQAIYGPSQNPSQPVGPQTPKVCDSKLTFDAITTIRGEIMFFKDRFYMRANPYYSEVELNFISVFWPHLPNGLQAAYEVAHRDEILFFKGNKYWTVQGQNELPGYPKDIHSSFGFPRSVNHIDAAVSEEDTGKTYFFVANKYWRYDEYKRSMDAGYPKMIEYDFPGIGNKVDAVFKKDGFFYFFHGTRQYKFDPKTKRILTLQKANSWFNCRKN
SDS-PAGE and autoradiography of 14C type I collagen cleavage products; 4.6 pmol MI, 2.1 pmol collagenase [5]: The initial cleavage of the collagen as well as its further degradation were completely blocked by recombinant human MI.

B3: human plasmin (protein)
chain: KVYLSECKTGNGKNYRGTMSKTKNGITCQKWSSTSPHRPRFSPATHPSEGLEENYCRNPDNDPQGPWCYTTDPEKRYDYCDILECEEECMHCSGENYDGKISKTMSGLECQAWDSQSPHAHGYIPSKFPNKNLKKNYCRNPDRELRPWCFTTDPNKRWELCDIPRCTTPPPSSGPTYQCLKGTGENYRGNVAVTVSGHTCQHWSAQTPHTHNRTPENFPCKNLDENYCRNPDGKRAPWCHTTNSQVRWEYCKIPSCDSSPVSTEQLAPTAPPELTPVVQDCYHGDGQSYRGTSSTTTTGKKCQSWSSMTPHRHQKTPENYPNAGLTMNYCRNPDADKGPWCFTTDPSVRWEYCNLKKCSGTEASVVAPPPVVLLPDVETPSEEDCMFGNGKGYRGKRATTVTGTPCQDWAAQEPHRHSIFTPETNPRAGLEKNYCRNPDGDVGGPWCYTTNPRKLYDYCDVPQCAAPSFDCGKPQVEPKKCPGRVVGGCVAHPHSWPWQVSLRTRFGMHFCGGTLISPEWVLTAAHCLEKSPRPSSYKVILGAHQEVNLEPHVQEIEVSRLFLEPTRKDIALLKLSSPAVITDKVIPACLPSPNYVVADRTECFITGWGETQGTFGAGLLKEAQLPVIENKVCNRYEFLNGRVQSTELCAGHLAGGTDSCQGDSGGPLVCFEKDKYILQGVTSWGLGCARPNKPGVYVRVSRFVTWIEGVMRNN
plasmin conversion of the 52-kDa proenzyme to the 46-kDa intermediate (SDS-PAGE) [5]: The addition of MI had no effect on the conversion of the 52-kDa proenzyme to the 46-kDa intermediate (lane 4)

B4: plasmin-treated rabbit fibroblast interstitial procollagenase (46-kDa intermediate) (protein)
chain: GNGLAVEKLKQMQEFFGLKVTGKPDAETLKMMKQPRCGVPDVAQFVLTPGNPRWEQTHLTYRIENYTPDLSRADVDNAIEKAFQLWSNVTPLTFTKVSKGQADIMISFVRGDHRDNSPFDGPEGQLAHAFQPGLGIGGDVHFDEDDRWTKDFRNYNLYRVAAHELGHSLGLSHSTDIGALMYPNYMFSGDVQLAQDDIDGIQAIYGPSQNPSQPVGPQTPKVCDSKLTFDAITTIRGEIMFFKDRFYMRANPYYSEVELNFISVFWPHLPNGLQAAYEVAHRDEILFFKGNKYWTVQGQNELPGYPKDIHSSFGFPRSVNHIDAAVSEEDTGKTYFFVANKYWRYDEYKRSMDAGYPKMIEYDFPGIGNKVDAVFKKDGFFYFFHGTRQYKFDPKTKRILTLQKANSWFNCRKN
conversion of the 46-kDa intermediate to the 42-kDa active enzyme at 37° C. (SDS-PAGE); 27 pmol MI, 16 pmol procollagenase [5]: the conversion of the 46-kDa intermediate to the 42-kDa active enzyme which should have occurred at 37 °C was completely blocked by MI
